Data reported in article PMC6391409, “A role for Vibrio vulnificus PecS during hypoxia” (Scientific Reports, 2019).
Where two headings read alike, the source gives them in different places.

Experiments:
PecS (VvPecS) [1] = biological target: T1, PecS (VvPecS) (Vibrio vulnificus, UniProt A0A3Q0KXQ7); assay: EMSA: attenuation of purified VvPecS binding to pecS-pecM intergenic DNA (IC50 […]); supported by SYPRO Orange thermal shift (Tm […] to […] °C)
T1 construct: gene VV2_0325; His6-tagged VvPecS (BJE04_RS19600; old locus tag VVA0819), dimer
T1 sequence (A0A3Q0KXQ7 entry or part of it): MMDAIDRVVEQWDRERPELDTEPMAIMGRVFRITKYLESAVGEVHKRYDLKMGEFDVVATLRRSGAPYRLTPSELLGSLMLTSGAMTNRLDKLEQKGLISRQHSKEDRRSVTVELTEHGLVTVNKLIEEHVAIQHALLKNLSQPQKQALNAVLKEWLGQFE

[2] = test system: VvPecS (PecS) (Vibrio vulnificus YJ016); assay: EMSA; details: EMSA: 0.5 M Tris pH 8.0, 100 mM NaCl, 6% glycerol, 25 uM EDTA, 0.12% Brij-58, 50 ug BSA, 25 C, 20 min; footprint: 20 mM Tris pH 8.0, 50 mM NaCl, 5 mM MgCl2 …
PecS (VvPecS) [3] = biological target: T1, PecS (VvPecS); assay: EMSA: attenuation of purified VvPecS binding to pecS-pecM intergenic DNA (IC50 […]); supported by SYPRO Orange thermal shift (Tm […] to […] °C); remark: listed apart in the source
[4] = test system: VvPecS (PecS) (Vibrio vulnificus YJ016); assay: EMSA; details: EMSA: 0.5 M Tris pH 8.0, 100 mM NaCl, 6% glycerol, 25 uM EDTA, 0.12% Brij-58, 50 ug BSA, 25 C, 20 min; footprint: 20 mM Tris pH 8.0, 50 mM NaCl, 5 mM MgCl2 …; remark: listed apart in the source

O=c1[nH]c(=O)c2[nH]c(=O)[nH]c2[nH]1 [urate]
Ki (PecS (VvPecS) [1]): 226 ± 29 µM

iNR (nsrR-nod intergenic DNA)
Kd [2]: 0.218 µM

O=c1[nH]c(=O)c2[nH]cnc2[nH]1 [xanthine]
Ki (PecS (VvPecS) [3]): 60 ± 5 µM

iSM (pecS-pecM intergenic DNA)
IC50 [2]: 366 µM | Kd [2]: 0.0003 µM | IC50 [4]: 1500 µM
